The text below walks through data of PMC10681739, “High-throughput data and modeling reveal insights into the mechanisms of cooperative DNA-binding by transcription factor proteins”.

The target of one series is RUNX1 (Homo sapiens, UniProt Q01196). Nature of the series: gcPBM; 2 nM RUNX1. To be noted: tags: N-terminal GST (pDEST15), kept (PMC6008103); label: surface-attached array probe.
Another series deals with T1, ETS1 (Homo sapiens, UniProt P14921).
T1 sequence: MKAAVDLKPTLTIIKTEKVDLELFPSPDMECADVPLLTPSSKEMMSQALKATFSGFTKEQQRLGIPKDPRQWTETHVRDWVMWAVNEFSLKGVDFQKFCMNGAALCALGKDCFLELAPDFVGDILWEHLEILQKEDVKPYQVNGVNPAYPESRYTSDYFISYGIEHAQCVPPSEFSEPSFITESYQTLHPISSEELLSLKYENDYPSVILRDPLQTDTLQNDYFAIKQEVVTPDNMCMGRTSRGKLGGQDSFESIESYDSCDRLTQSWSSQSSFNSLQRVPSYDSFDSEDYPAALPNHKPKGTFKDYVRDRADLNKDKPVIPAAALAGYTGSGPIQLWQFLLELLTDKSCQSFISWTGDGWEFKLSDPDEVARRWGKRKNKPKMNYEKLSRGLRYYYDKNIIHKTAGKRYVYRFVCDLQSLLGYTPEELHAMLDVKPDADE
Kind of series: gcPBM; 1 nM ETS1. The conditions noted are these: tags: N-terminal GST (pDEST15), kept (PMC6008103); label: surface-attached array probe.

RUNX1, sequence (Q01196 whole entry): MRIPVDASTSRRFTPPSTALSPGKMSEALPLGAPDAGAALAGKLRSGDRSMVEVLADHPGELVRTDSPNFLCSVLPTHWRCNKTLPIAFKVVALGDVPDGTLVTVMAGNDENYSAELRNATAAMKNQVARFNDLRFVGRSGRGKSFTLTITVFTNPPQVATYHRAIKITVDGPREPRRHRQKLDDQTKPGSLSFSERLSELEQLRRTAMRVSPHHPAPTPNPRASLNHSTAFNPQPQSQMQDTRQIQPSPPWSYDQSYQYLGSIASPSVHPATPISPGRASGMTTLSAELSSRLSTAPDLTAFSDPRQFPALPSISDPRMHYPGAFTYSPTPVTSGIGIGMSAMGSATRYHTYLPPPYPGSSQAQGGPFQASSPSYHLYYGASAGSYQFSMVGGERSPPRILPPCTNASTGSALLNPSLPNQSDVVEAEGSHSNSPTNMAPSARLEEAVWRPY

B1: Table S3 B row 2580 (dsDNA)
DNA 1: GTCGCTGCGGTTTTGGGGTTGGCATGCTGTCCTCTG
DNA 2: CAGAGGACAGCATGCCAACCCCAAAACCGCAGCGAC
Turning to B1, the binding signal with RUNX1 was 58800 PBM fluorescence, median of replicate spots.

B2: Table S3 B row 3968 (dsDNA)
DNA 1: CCGAGTTGCGGTTTCTCCGTTAGTGCTTACGGGTTG
DNA 2: CAACCCGTAAGCACTAACGGAGAAACCGCAACTCGG
B2: in the series with RUNX1, the binding signal was 54300 PBM fluorescence, median of replicate spots.

B3: Table S3 B row 3820 (dsDNA)
DNA 1: TTTTGCGGTTTTTGATCTGGAAGCCACACAGCCTTA
DNA 2: TAAGGCTGTGTGGCTTCCAGATCAAAAACCGCAAAA
With B3, the binding signal with RUNX1 was 57800 PBM fluorescence, median of replicate spots.

B4: Table S2 B row 479 (dsDNA)
DNA 1: CACTTCCCCCAGCCTCTCTTTTTAATACGACAATAG
DNA 2: CTATTGTCGTATTAAAAAGAGAGGCTGGGGGAAGTG
Take B4: in the series with ETS1, the binding signal is 2920 PBM fluorescence, median of replicate spots.

B5: Table S2 B row 4083 (dsDNA)
DNA 1: GCCCCAGCGTTTCCTCTTACCCAAAATGCCCCGCCC
DNA 2: GGGCGGGGCATTTTGGGTAAGAGGAAACGCTGGGGC
Turning to B5, the binding signal with ETS1 was 3440 PBM fluorescence, median of replicate spots.

B6: Table S2 B row 159 (dsDNA)
DNA 1: GTAAAAGAGGAAGTAACACCTCCTTGACGTTGAGAC
DNA 2: GTCTCAACGTCAAGGAGGTGTTACTTCCTCTTTTAC
As to B6, in the series with ETS1, the binding signal was 2720 PBM fluorescence, median of replicate spots.

B7: Table S3 B row 1801 (dsDNA)
DNA 1: ACTCTAACCGCAGTGACGTGGGACCTCCTCGGCAGG
DNA 2: CCTGCCGAGGAGGTCCCACGTCACTGCGGTTAGAGT
With B7, the binding signal in the series with RUNX1 was 46700 PBM fluorescence, median of replicate spots.

B8: Table S2 B row 3477 (dsDNA)
DNA 1: CTACCGGGAGTGCAGGTCGCGCTTCCGGCGGCGTCC
DNA 2: GGACGCCGCCGGAAGCGCGACCTGCACTCCCGGTAG
Take B8: the binding signal in the series with ETS1 is 3610 PBM fluorescence, median of replicate spots.

B9: Table S2 B row 3084 (dsDNA)
DNA 1: TTTGCACACATCCTGGCCTCCGCCTGAGCACCTCCT
DNA 2: AGGAGGTGCTCAGGCGGAGGCCAGGATGTGTGCAAA
Consider B9, for which, in the series with ETS1, the binding signal is 3370 PBM fluorescence, median of replicate spots.

B10: Table S2 B row 2920 (dsDNA)
DNA 1: GGCGCTAGGCTTCCGGATCGCGCTGGGCGGAGTTCA
DNA 2: TGAACTCCGCCCAGCGCGATCCGGAAGCCTAGCGCC
Turning to B10, the binding signal with ETS1 is 2860 PBM fluorescence, median of replicate spots.

B11: Table S2 B row 813 (dsDNA)
DNA 1: TGATGTAGAATCCGCTCGGCTTCCGGCGAGGGTGGG
DNA 2: CCCACCCTCGCCGGAAGCCGAGCGGATTCTACATCA
For the molecule B11, the binding signal in the series with ETS1 is 4160 PBM fluorescence, median of replicate spots.

B12: Table S2 B row 1979 (dsDNA)
DNA 1: CTGAAACAGGAAGCTGAGGGTGCCGTTGGGGGAGGA
DNA 2: TCCTCCCCCAACGGCACCCTCAGCTTCCTGTTTCAG
As to B12, the binding signal with ETS1 was 3960 PBM fluorescence, median of replicate spots.

B13: Table S2 B row 3602 (dsDNA)
DNA 1: TGTCGGGCGGATGTGTACCGGCGTTAATATAGTAAG
DNA 2: CTTACTATATTAACGCCGGTACACATCCGCCCGACA
Turning to B13, the binding signal in the series with ETS1 is 2800 PBM fluorescence, median of replicate spots.

B14: Table S2 B row 1396 (dsDNA)
DNA 1: GAGGAGGAAAGCGGAAGCGCTGCCCTCAGTGGTAGG
DNA 2: CCTACCACTGAGGGCAGCGCTTCCGCTTTCCTCCTC
For B14, in the series with ETS1, the binding signal is 4360 PBM fluorescence, median of replicate spots.

B15: Table S3 B row 3235 (dsDNA)
DNA 1: AAGTCAAAACCGCAAACGCTCAGTAAAAAAGACTCT
DNA 2: AGAGTCTTTTTTACTGAGCGTTTGCGGTTTTGACTT
On to B15, for which the binding signal with RUNX1 is 42400 PBM fluorescence, median of replicate spots.

B16: Table S3 B row 3447 (dsDNA)
DNA 1: TGATTGCGGTTTCGGTCGCTCTCCCGTGTTTGCCGG
DNA 2: CCGGCAAACACGGGAGAGCGACCGAAACCGCAATCA
For B16, in the series with RUNX1, the binding signal was 50800 PBM fluorescence, median of replicate spots.

B17: Table S2 B row 3902 (dsDNA)
DNA 1: TGGGGCCCGGAAGCGCTGGCGCCTTACGGCCAGAAG
DNA 2: CTTCTGGCCGTAAGGCGCCAGCGCTTCCGGGCCCCA
Turning to B17, the binding signal with ETS1 is 3570 PBM fluorescence, median of replicate spots.

B18: Table S2 B row 875 (dsDNA)
DNA 1: AGGCAGCACAGGAAGTTATAACTACATGTACACTTG
DNA 2: CAAGTGTACATGTAGTTATAACTTCCTGTGCTGCCT
Consider B18, for which the binding signal in the series with ETS1 is 4250 PBM fluorescence, median of replicate spots.

B19: Table S2 B row 573 (dsDNA)
DNA 1: GCCACCGTATTTCCGCGTTTTTCGAGGTAGGCGGGA
DNA 2: TCCCGCCTACCTCGAAAAACGCGGAAATACGGTGGC
As to B19, in the series with ETS1, the binding signal was 3870 PBM fluorescence, median of replicate spots.

B20: Table S3 B row 3344 (dsDNA)
DNA 1: CCGAAGCCTGCGGTTTCATGTGGGAGCAAGCGGCCT
DNA 2: AGGCCGCTTGCTCCCACATGAAACCGCAGGCTTCGG
Turning to B20, the binding signal in the series with RUNX1 was 37500 PBM fluorescence, median of replicate spots.

B21: Table S2 B row 306 (dsDNA)
DNA 1: GAGAAACAGGAAGAGGGGTGGTGCTTACGGAACACG
DNA 2: CGTGTTCCGTAAGCACCACCCCTCTTCCTGTTTCTC
Take B21: the binding signal with ETS1 was 2960 PBM fluorescence, median of replicate spots.

B22: Table S3 B row 2222 (dsDNA)
DNA 1: CAGAAACCGCAGAACTGAGCTGACGACCCGGGAGTG
DNA 2: CACTCCCGGGTCGTCAGCTCAGTTCTGCGGTTTCTG
As for B22, the binding signal with RUNX1 is 42300 PBM fluorescence, median of replicate spots.

B23: Table S2 B row 540 (dsDNA)
DNA 1: AACAAACCGGATGGGGTTGCCACCTGCAATCTTGTC
DNA 2: GACAAGATTGCAGGTGGCAACCCCATCCGGTTTGTT
For the molecule B23, the binding signal in the series with ETS1 was 3220 PBM fluorescence, median of replicate spots.

B24: Table S2 B row 1042 (dsDNA)
DNA 1: GGTCCGGATGTATAAAGCGCGGCCCCCTGGGGGGAG
DNA 2: CTCCCCCCAGGGGGCCGCGCTTTATACATCCGGACC
In the case of B24, in the series with ETS1, the binding signal is 2790 PBM fluorescence, median of replicate spots.

B25: Table S3 B row 943 (dsDNA)
DNA 1: TGTTTGCGGTTTAGACCCCAAAGATTCATGTTGGTA
DNA 2: TACCAACATGAATCTTTGGGGTCTAAACCGCAAACA
Consider B25, for which the binding signal in the series with RUNX1 was 38700 PBM fluorescence, median of replicate spots.

B26: Table S2 B row 1543 (dsDNA)
DNA 1: AAACCAGAGAGGAAGTGGCACCTCATGGCCAGACTG
DNA 2: CAGTCTGGCCATGAGGTGCCACTTCCTCTCTGGTTT
On to B26, for which the binding signal in the series with ETS1 was 3160 PBM fluorescence, median of replicate spots.

B27: Table S3 B row 1798 (dsDNA)
DNA 1: CTCTCTTGCGGTTTGCAGCCAGATCACCTCCCATAC
DNA 2: GTATGGGAGGTGATCTGGCTGCAAACCGCAAGAGAG
Regarding B27, in the series with RUNX1, the binding signal was 37400 PBM fluorescence, median of replicate spots.

B28: Table S2 B row 799 (dsDNA)
DNA 1: ATGAACCACTTCCTGTGTGTTCCCAGAGAGGTCAGG
DNA 2: CCTGACCTCTCTGGGAACACACAGGAAGTGGTTCAT
Turning to B28, in the series with ETS1, the binding signal is 25100 PBM fluorescence, median of replicate spots.

B29: Table S3 B row 2036 (dsDNA)
DNA 1: GATTGCGGTTGGGACTTTCCCTAAGTCATTTGCTGT
DNA 2: ACAGCAAATGACTTAGGGAAAGTCCCAACCGCAATC
With B29, in the series with RUNX1, the binding signal was 53200 PBM fluorescence, median of replicate spots.

B30: Table S2 B row 544 (dsDNA)
DNA 1: GCTCCCGGATGTTCTGGGGATCAGCGCCCGCCTGGC
DNA 2: GCCAGGCGGGCGCTGATCCCCAGAACATCCGGGAGC
Turning to B30, the binding signal with ETS1 was 3300 PBM fluorescence, median of replicate spots.

B31: Table S2 B row 1163 (dsDNA)
DNA 1: ATCACTTGTTTCCGCCAGCAAATCACAGGTCCCCAG
DNA 2: CTGGGGACCTGTGATTTGCTGGCGGAAACAAGTGAT
Turning to B31, the binding signal with ETS1 is 3770 PBM fluorescence, median of replicate spots.

B32: Table S3 B row 3808 (dsDNA)
DNA 1: GCCCTTCTTGCGGTTTTCATGGCAGGGTGTTAACAT
DNA 2: ATGTTAACACCCTGCCATGAAAACCGCAAGAAGGGC
For B32, the binding signal with RUNX1 was 60800 PBM fluorescence, median of replicate spots.

B33: Table S2 B row 1606 (dsDNA)
DNA 1: CCGCTTCCTTAGAGGTTAAGTGGTGGAGGTTCAGTT
DNA 2: AACTGAACCTCCACCACTTAACCTCTAAGGAAGCGG
On to B33, for which the binding signal with ETS1 is 3060 PBM fluorescence, median of replicate spots.

B34: Table S2 B row 3281 (dsDNA)
DNA 1: GACCTGACAACATCCTGGCGCAGTGAGTTGGCCCTG
DNA 2: CAGGGCCAACTCACTGCGCCAGGATGTTGTCAGGTC
Consider B34, for which the binding signal with ETS1 was 3720 PBM fluorescence, median of replicate spots.

B35: Table S3 B row 852 (dsDNA)
DNA 1: CGGCAGCTTGCGGTTAGCCGTTCTTTCAGCCCAGTT
DNA 2: AACTGGGCTGAAAGAACGGCTAACCGCAAGCTGCCG
On to B35, for which the binding signal with RUNX1 was 48900 PBM fluorescence, median of replicate spots.

B36: Table S2 B row 575 (dsDNA)
DNA 1: GCAGTGCAGGAAGTGCTTTGTCTGGTACAATCCCAA
DNA 2: TTGGGATTGTACCAGACAAAGCACTTCCTGCACTGC
Turning to B36, the binding signal with ETS1 is 4090 PBM fluorescence, median of replicate spots.

B37: Table S2 B row 1731 (dsDNA)
DNA 1: GACTGGTTTCCTGGTTTTGATGTAGTTTAGAGAAAA
DNA 2: TTTTCTCTAAACTACATCAAAACCAGGAAACCAGTC
B37: the binding signal with ETS1 was 3820 PBM fluorescence, median of replicate spots.

B38: Table S2 B row 1126 (dsDNA)
DNA 1: TCCAGCCCCACCGGAAGTGGATGTGATTAATCTAGT
DNA 2: ACTAGATTAATCACATCCACTTCCGGTGGGGCTGGA
Turning to B38, in the series with ETS1, the binding signal was 25900 PBM fluorescence, median of replicate spots.

B39: Table S2 B row 145 (dsDNA)
DNA 1: CCACCATCTTTCCGGCTCCCTCGCGACCTCCACGAC
DNA 2: GTCGTGGAGGTCGCGAGGGAGCCGGAAAGATGGTGG
B39: in the series with ETS1, the binding signal is 3090 PBM fluorescence, median of replicate spots.
